Assay results from US20090220501A1 (published 2009).

Target: T1, human CD19 (human, UniProt P15391 20-556)
T1 construct: whole, on cells; also called CD19 B-cell antigen
T1 sequence (looked up): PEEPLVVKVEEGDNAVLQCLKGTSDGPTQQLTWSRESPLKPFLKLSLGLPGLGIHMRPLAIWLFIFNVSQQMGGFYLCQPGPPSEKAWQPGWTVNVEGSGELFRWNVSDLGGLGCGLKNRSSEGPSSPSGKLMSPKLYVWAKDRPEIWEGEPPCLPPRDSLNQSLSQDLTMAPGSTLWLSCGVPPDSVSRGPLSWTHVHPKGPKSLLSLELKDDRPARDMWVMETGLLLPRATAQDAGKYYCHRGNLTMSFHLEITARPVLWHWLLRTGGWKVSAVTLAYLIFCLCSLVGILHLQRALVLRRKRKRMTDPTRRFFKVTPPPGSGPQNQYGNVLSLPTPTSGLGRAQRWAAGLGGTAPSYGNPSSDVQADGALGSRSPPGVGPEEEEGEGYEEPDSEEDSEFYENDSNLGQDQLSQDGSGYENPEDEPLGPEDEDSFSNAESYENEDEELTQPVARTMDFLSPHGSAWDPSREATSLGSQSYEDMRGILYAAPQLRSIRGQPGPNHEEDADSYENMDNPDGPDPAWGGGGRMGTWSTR
Experiment: flow cytometry on CD19-positive cells with varying antibody concentrations and a fluorescently labeled secondary antibody (Benedict method); mean of 6 experiments

B1: humanized (chimeric) anti-CD19 IgG1 antibody of the disclosure, 4G7chim (antibody, V domains shown)
VH: QVQLQQSGPELIKPGASVKMSCKASGYTFTSYVMHWVKQKPGQGLEWIGYINPYNDGTKYNEKFKGKATLTSDKSSSTAYMELSSLTSEDSAVYYCARGTYYYGSRVFDYWGQGTTLTVTV
VL: DIVMTQAAPSIPVTPGESVSISCRSSKSLLNSNGNTYLYWFLQRPGQSPQLLIYRMSNLASGVPDRFSGSGSGTAFTLRISRVEAEDVGVYYCMQHLEYPLTFGAGTKLEIRR
notes: also called anti-CD19 antibody of the present disclosure; CD19 chimeric antibody
**Q.** With B1 as the binder, how does the Kd read?
**A.** ~5.5 nM
